Results as given in the nanobody polyreactivity screen of Harvey et al. (2022).

assay: yeast display, Sf9 membrane polyspecificity reagent, FACS + sequencing; frameworks hold sequencing errors
How it was run: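 Galactose induction of a Saccharomyces cerevisiae BJ5465 synthetic nanobody display library ran 36–48 hours. The cells were then stained for 1 hour at 4 °C with 10% biotinylated, detergent-solubilized Sf9 membrane reagent, pulled down on streptavidin microbeads and FACS-sorted into low and high (top ~1%) gates on expression and reagent-binding fluorescence. Labels for polyreactivity follow the gate of origin.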

Row | Sequence | polyreactivity (PSR sort gate)
1 | QVQLVESGGGLVQAGGSLRLSCAASGFTFGGYAMGWYRQAPGKERELVAAIRSTGDTTYYADSVKGRFTISRDNAKNTVYVQMNSLKPEDTAVYYCNADLSRDNDFDYWGQGTQVTVSS | low polyreactivity
2 | QVQLVESGGGLVQAGGSLRLSCAASGFIFSRNAMGWYRQAPGNERDLVAAISLRGGSTYYTDSVKGRFTISRDNAKNTVYLQMISLKPEDTAVYYCAAVSGRYLTRDGYWGQGTQVTVSS | high polyreactivity
3 | QVQLVESGGGLVQAGGSLRLSCAASGSIFTFYAMGWYRQAPGKERELVAAISSGGDTYYADSVKGRFTISRDNAKNTVYLQMNSLKAEDTAVYYCAADWRGSYLYGYYYWGQGTQVTVSS | low polyreactivity
4 | QVQLVESGGGLVQAGGSLRLSCAASGFTLENYAMGWYRQAPGKARELVAAINCRGSRTYYADSVKGRFTISRDNAMNTVYLQMNSLKPEDTAVYYCARDKRTNSGFYYWGQGTQVTVSS | high polyreactivity
5 | QVQLVESGGGLVQAGGSLRLSCAASGSIFIYYSMGWYRQAPGKERELVAAISWSGGDTYYADSVKGRFTISRDNAKNTVYLQMNSLKPEDTAVYYCAADSVTRPAGDYWGQGTQVTVSS | low polyreactivity
6 | QVHLVESGGGLVQAGGSLRLSCAASGRIFYANDMGWYRQAPGKERELVAAITNTVSTTYADSVKGRFTISRDNAKNTVYLQMNSLKTEDTAVYYCNADDPYVPKADMGYWGQGTQVTVSS | low polyreactivity
7 | QVQLLESGGGLVQAGGSLRLSCAASGRTFVSYDMGWDRQAPGKEREVVAAITYSGGASTYYADSVKGRFTISRDYAKKTGYFQMNSLIPEDTAVYYCATDFSLSFELDYWGQGTQVTVSS | low polyreactivity
8 | QVQLVESGGGLVQAGGSLRLSCAASGGTLRYYAMGWYRQAPGTEREFVASIARSGGSTYYADSVKGGFTISRDNAKNTVYLQMNRLKPEDTAVYYCADRVRLYRGFTKYDYWGQGTQVTVSS | high polyreactivity
9 | QVQLVESGGGLVQAGGSLRLSCAASGSTLAGYAMGWYRQAPGKERELVAAIDWTGGSTTYADSVKGRFTISRDNAKNTVYLQMNSLKPEDTAVYYCNVDLGVNGDYWGQGTQVTVSS | low polyreactivity
10 | QVQLVESGGGLVQAGGILRLSCAASGSTFNDYAMGRYRQAPGKERELVAAISASGSITYYADSVKGRFTISRDIAKNTVNLQMISLKPEDTAVYYCNARGYRGYDYWGQGTQVTVSS | high polyreactivity
11 | QVQLVESGGGLVQAGGSLRLSCAASGFTIISYTMGWYRQAPGKERELVAAIRGGGRTYYADSVKGRFTISRDNAKNTVYLQMNSQKPEDTAVYYCASRLRYGGHYDYWGQGTQVTVSS | high polyreactivity
12 | QVQLVESGGGLVQAGGSLRLSCAASGYTFTHYAMGWYRQAPGKERELVASISQSGGSTYYPDSVKGSFTISRDNAQYTVYGQMNSLKPEDTAVYYCAVDYYYDQSLYEYCGQGTQVTVSS | high polyreactivity
13 | QVQLVESGGGLVQAGGSLRLSCAASGRIFGENAMGGYRQAPGKEREFVAVISISDASTYYADSVKGRFTISRDNAKNTVYLQMNSLKPEDTAVYYCAADLTDFLYVASDYWGQGTQVTVSS | low polyreactivity
14 | QVQLVESGGGLVQAGGSLRLSCAASGRTFSPNAMGWYRQAPGKEREFVAAITWSGGGTFYADSVKGRFTISRDNAKNTVYLQMNSLKPEDTAVYYCAARLDTYQTHSVITPAALYYWGQGTQVTVSS | low polyreactivity
15 | QVQLVESGGGLVQAGGSLRLSCAASGYIFGSNAMGWYRQAPGKDRELVAGISNNGGSTYYADSVKGRFTISRDKAKNTVYLQMNSLKPEDTAVYYCARDPNDDNSFPYDYWGQGTQVTVSS | low polyreactivity
16 | QVQLVESGAGLVQAGGSLRLSCAASGRIFADYAMGWYRQAPGKERELVADIRQSGGRTYYADSVKGRFTISRDNAKNTVYLQMNSLKPEDTAVYYCATDYGSWGDYSGKYDYWGQGTQVTVSS | low polyreactivity
17 | QVQLVESGGGLVQAGGSLRLSCAASGSTFRRYVMGGYREAAGKERELVAAISGSSGSTYYADSVKGRFTISRDNAKNTVYLQMNSLKPEDTAVYYCAAVRATQGYRYGYWGQGTQVTVSS | high polyreactivity
18 | QVQLVESGGGLVQAGGSLRLSCAASGSTFVGNAMGWYRQAPGKERELVAAITWSGGTYYADSVKGRFTISRDNAKNTVYLQMNSLKPEDTAVYYCNAEWRVYPDLYDYWGQGTQVTVSS | low polyreactivity
19 | QVQLVESGGGLVQAGGSLRLSCAASGRIFWTYAMGWYRQAPGKERELVASITWSGGSTYYADSVKGRFTISRDNAKNTVYLQMNSLKPEDTAVYYCHTDVLAPYDSGYWGQGTQVTVSS | low polyreactivity
20 | QVQLVESGGGLVQAGGSLRLSCAASGFIFAEYAMGWYRQATGKERELDAGITSGGSTSYADSVKGRFTISRDNAKNTVYLQMTSLKPDATAVYYCAATWYYHYNDWKHWYEYGYWGLGTQVTVSS | low polyreactivity
21 | QVQLVESGGGLVQAGGSLRLSCAASGSTFLWYAMGWYRQAPGKERELVATISGSGGSTYYADSVKGRFTISRDNAKNTVYLQMNSLKPEDTAVYYCARDTLGGTSLGDYWGQGTQVTVSS | high polyreactivity

Row | Sequence | polyreactivity (PSR sort gate)
22 | QVQLVESGGGLVQAGGSLRLSCAASGFTFRRYAMGWYRQAPGKERELVAAISYSGGSTNYADSVKGRFTISRDNAKNTVYLQMNSLKPEDTAVYYCATTSRAWGRGYDYWGQGTQVTVSS | low polyreactivity
23 | QVQLVESGGGLVQAGGSLRLSCAASGSIFKYYAMGWYRQATGKERELVAAISSGGSTKYADSVKGRFTITRDNAKNTVYLQMNSLKPEDTAVYYCAARDPSRHARRAYDYWGQGTQVTVSS | low polyreactivity
24 | QVQLVESGGGLVQAGGSLRLSCAASGRTIGVYAMGWYRQAPGKERELVAGITTSGDSTYYADSVKGRFTISRDNAKNTVYLQMNSLKPEDTAVYYCNADVLFFYTPTSEYDYWGQGTQVTVSS | low polyreactivity
25 | QVQREESGGGLVQAGGSLRLSCVASGSTFRYYAMGWYRQSPGTERELVAAITWRGTSTYYADSVKGRFTISRDNAKNTVYLQMNSLKPEDTAVYYCNAAGYWPATGDYWGQGTQVTVSW | high polyreactivity
26 | QVQLEESGGGLVQAGGSLRLSCAASGRIFRPYAMGWYRQAPGKERELVAAISFSGGSTYYADSVKGRFTISRDNAKNTVYLQMNSLKPEDTAVYYCNKDLYRYPGYDYWGQGTQVTVSS | high polyreactivity
27 | QVQLVESGGGLVQAGGSLRLSCAAAGRIFVGYAMGWYRQAPGKERELVAGISRSGYSTYYADSVKGRFTISRDNAKNTVYLQMNSLKPEDTAVYYCAASWYKNPTRYYYWGQGTQVTVSS | high polyreactivity
28 | QVQLVESGGGLVQAGGSLRLSCAASGGIFDYYAMGWYRQAPGKERELVAAISSSGGSTYYADSVKGRFTISRDNAKNTVYLQMNSLKPEDTAVYYCNADRRRRFGYWGQGTQVTVSS | high polyreactivity
29 | QVQLVESGGGLVQAGGSLRLSCAASGRIFYRYAMGWYRQAPWKEWELVADISSGTSTNYADSVKGRFTLSRDNAKNTVDLQMNSLKPEDTAVYYCAADEVRSAWRCSSPPDYDHWGQGTQVTVSS | low polyreactivity
30 | QVQLVESGGGLVQAGGSLRLSCAASGSIFGIYVMGWYRQAPGKERELVAAISDGGSTYYADSVKGRFTISRDNAKNTVYLQMNSLKPEDTAVYYCAAEVHGWYSYYYWGQGTQVTVSS | high polyreactivity
31 | QVQLVESGGGLVQAGGSLRLSCAASGFTFAVYAMGWYRQAPGKERELGAAISRSGTRTYYADSVKGRFTFSRDNAKNTVYLQMNSLKPEDTAVYYCATVVILIYDYWGQGTQVSVSS | low polyreactivity
32 | QVQLVESGGGLVQAGGSLRLSCASSGGIFYRNAMGWYRQAPGKERELVAVITSSGGSTYYADSVKGRFTISRDNAKNTVYLQMNSLKPVDTAVYYCAAESVAAYYWGQGTQVTVSS | high polyreactivity
33 | QVQLVESGGGLVQAGGSLRLSCAASGSTFAIYAMGWYRPAPGKERELVAAITLRTDSTYYADSVKGRFTISRDNAKNTVYLQMNSLKPEDTAVYYCNTVAYMRRFDKWGMNYWGQGTQVTVSS | low polyreactivity
34 | QVQLVESGGGLVQAGGSLRLSCAASGLISTPNAMGWSRQAPGKERELVASISSRGGSTYYADSVKGRFTISRDNAKNTVYLQMNSLKPEDTAVYYCAADAYRDFYYEYYYWGQGSQVTVSS | low polyreactivity
35 | QVQLVESGGGLVQAGGSLRLSCAASGRILPGYAMGWYRQAPGKERELVAAIRGNGDSTYYADSVKGRFTISRDNAKNTVYLQMNSLKPEDTAVYYCAARRVSTIQRDSYRGRKYGYWGQGTQVTVSS | low polyreactivity
36 | QVQLVESGGGLVQAGGSLRLSCAASGRTLSYYAMGWYRQAPGKEREFVAAITGSGGSTYYADSVKGRFTISRDNAKYTVYLQMNSLKPEDTAVYYCNAKGLGVFTVEYYYWGQGTQVTVSS | low polyreactivity
37 | QVQLVESGGGLVQAGGSLRLICAASGSTFAYNDMGWYRQAPGKERELVADIRSGGNTNYADSVKGRFTISRDNAKNTVYLQMNSLKPEDTAVYYCATDCYRIDVYHPDYRYDYWGQGTQVTVSS | low polyreactivity
38 | QLQLVESGGGLVQAGGRLRLSCAASGFIFHINARGWYRQAPGKEREFVAAISRSVGSTSYADTVKGRFTNSRDNAKNTVYLLMNSLKPEDTAVYYCNAALRKRKGPYDYWGQGTQVTVSS | high polyreactivity
39 | QVQLVESGGGLVQAGGSLRLSCAASGSTLSYYAMGWYRQAPGKERELVAAISFSGGITYYADSVKGRFTISRDNAKNTVYLQMNSLKPEDTAVYYIKAEYKVYRAYVIWYDYWGQGTQVTVSS | high polyreactivity
40 | QVQLVETGGGLVQAGGSLRLSCAPSGSIFRYNAMGWYRQAPGKEREFVAAISQSGSRTYYADSVKGRFTISRDNAKNTVYLQMNSLKPEDTAVYYCAKKYYGVKFYWGQGTQVTVSS | low polyreactivity
41 | QVHLVESGGGIVQAGGSLRLSCAASGSIFNYYAMGWYRQAPGKETELVAAITWSGGRTYYADSVKGRFTISRDNAKNTVDLQMNSEKPEDTAVYYFATATVRFRVILFSPRMDDWGQGSQVTVSS | low polyreactivity
